Values of other authors as cited in publication PMC10086210.

Molecular target: PD-L1 (Homo sapiens) (UniProt Q9NZQ7)
UniProt Q9NZQ7, sequence (Q9NZQ7 19-238): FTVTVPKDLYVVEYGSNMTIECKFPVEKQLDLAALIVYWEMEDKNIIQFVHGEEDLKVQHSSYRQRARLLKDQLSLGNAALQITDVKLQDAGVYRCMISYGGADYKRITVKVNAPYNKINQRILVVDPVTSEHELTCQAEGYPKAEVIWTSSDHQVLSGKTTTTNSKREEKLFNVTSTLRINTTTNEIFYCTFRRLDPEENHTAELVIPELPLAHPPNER

Kd: 510 nM
Substance: DPPA-1
